Measured values as given in the supplement of paper PMC7125110.
± gives the standard error. For part of these data: Variants at the floor of the assay were thinned out.

B1: glmS ribozyme (parent)
chain: AUAAAAGCGCCAGAACUACAGAAAUGUAGUUGACGAGGAGGAGGUUUAUCGAAUUUUCGGCGGAUGCCUCCAAA

Key:
Conditions in all cases: with glucosamine-6-phosphate
glucosamine-6-phosphate [1] = variants of: B1; experiment: kcat; higher = faster cleavage; RNA array
Procedure, shortened: (§1)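 Weighted Michaelis–Menten fits across concentrations supplied kcat and KM, based on kobs from one- or two-exponential decay fits to normalised per-tile medians. The data came from barcoded ribozyme variants transcribed in situ by E. coli RNA polymerase on sequenced MiSeq chips and tracked at 37 °C by a hybridised Cy3 probe. Glucosamine-6-phosphate (40 μM to 10 mM) in HEPES/KCl/Mg(OAc)2 buffer was flowed in.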

glucosamine-6-phosphate [2] = variants of: B1; experiment: KM; higher = weaker cofactor use; RNA array
Procedure, shortened: as §1

glucosamine-6-phosphate [3] = variants of: B1; experiment: self-cleavage kobs at 640 uM GlcN6P; higher = faster cleavage; RNA array
Procedure, shortened: as §1

glucosamine-6-phosphate [4] = variants of: B1; experiment: self-cleavage kobs at 2500 uM GlcN6P; higher = faster cleavage; RNA array
Procedure, shortened: as §1

glucosamine-6-phosphate [5] = variants of: B1; experiment: self-cleavage kobs at 10000 uM GlcN6P; higher = faster cleavage; RNA array
Procedure, shortened: as §1

glucosamine-6-phosphate [6] = variants of: B1; experiment: self-cleavage kobs at 40 uM GlcN6P; higher = faster cleavage; RNA array
Procedure, shortened: as §1

glucosamine-6-phosphate [7] = variants of: B1; experiment: self-cleavage kobs at 160 uM GlcN6P; higher = faster cleavage; RNA array
Procedure, shortened: as §1

| Variant | kcat (glucosamine-6-phosphate [1]) | KM (glucosamine-6-phosphate [2]) | self-cleavage kobs at 640 uM GlcN6P (glucosamine-6-phosphate [3]) | self-cleavage kobs at 2500 uM GlcN6P (glucosamine-6-phosphate [4]) | self-cleavage kobs at 10000 uM GlcN6P (glucosamine-6-phosphate [5]) | self-cleavage kobs at 40 uM GlcN6P (glucosamine-6-phosphate [6]) | self-cleavage kobs at 160 uM GlcN6P (glucosamine-6-phosphate [7]) |
| --- | --- | --- | --- | --- | --- | --- | --- |
| A12G U56C | 0.000482 ± 5.2e-05 s⁻¹ | 9850 ± 1600 µM | 3.18e-05 ± 1.4e-05 s⁻¹ | 9.57e-05 ± 1.7e-05 s⁻¹ | 0.000244 ± 3.4e-05 s⁻¹ | – | – |
| A15C A39C | 0.00146 ± 0.00042 s⁻¹ | 3400 ± 1700 µM | 0.000171 ± 2.6e-05 s⁻¹ | 0.000622 ± 9.2e-05 s⁻¹ | 0.00112 ± 8.5e-05 s⁻¹ | 2.08e-05 ± 6.5e-06 s⁻¹ | 0.000119 ± 1.5e-05 s⁻¹ |
| A14G G41C | 0.00141 ± 0.00048 s⁻¹ | – | 0.00022 ± 5.1e-05 s⁻¹ | 0.000737 ± 0.00013 s⁻¹ | 0.00105 ± 0.00013 s⁻¹ | 4.74e-05 ± 9.7e-06 s⁻¹ | 4.38e-05 ± 1.7e-05 s⁻¹ |
| A14U U57A | 6.85e-05 ± 3.9e-06 s⁻¹ | 2120 ± 440 µM | – | 3.51e-05 ± 1e-05 s⁻¹ | 5.69e-05 ± 7.6e-06 s⁻¹ | – | – |
| U30G U45C | 0.000451 ± 9.8e-05 s⁻¹ | – | 0.000201 ± 8.3e-05 s⁻¹ | 0.00024 ± 7.8e-05 s⁻¹ | 0.000435 ± 9.4e-05 s⁻¹ | – | – |
| A6U C16A | 1.85e-05 ± 5.8e-06 s⁻¹ | – | – | – | – | – | – |
| A6U G60C C67A | < 1e-05 s⁻¹ | – | < 1e-05 s⁻¹ | – | < 1e-05 s⁻¹ | – | < 1e-05 s⁻¹ |
| A39C U57G | < 1e-05 s⁻¹ | – | – | – | – | – | < 1e-05 s⁻¹ |
| A42C G66A | 0.000322 ± 2.8e-05 s⁻¹ | 1090 ± 210 µM | 0.000125 ± 1.5e-05 s⁻¹ | 0.000208 ± 2.9e-05 s⁻¹ | 0.000305 ± 4.2e-05 s⁻¹ | – | – |
| U45G U54C | 0.0089 ± 0.00053 s⁻¹ | 1480 ± 160 µM | 0.00308 ± 0.00078 s⁻¹ | 0.00519 ± 0.00085 s⁻¹ | 0.00798 ± 0.001 s⁻¹ | 0.000233 ± 5.4e-05 s⁻¹ | 0.000851 ± 0.00024 s⁻¹ |
| U45A U47A | 0.0227 ± 0.0082 s⁻¹ | – | 0.00902 ± 0.0014 s⁻¹ | 0.0263 ± 0.0064 s⁻¹ | – | 0.00126 ± 0.0002 s⁻¹ | 0.00413 ± 0.001 s⁻¹ |
| C16G A64C | 2.1e-05 ± 1.7e-06 s⁻¹ | 9060 ± 1500 µM | – | – | – | – | – |
| A33G A36C | 1.58e-05 ± 7.1e-06 s⁻¹ | – | < 1e-05 s⁻¹ | – | < 1e-05 s⁻¹ | < 1e-05 s⁻¹ | < 1e-05 s⁻¹ |
| G51A C67G | 2e-05 ± 6.5e-06 s⁻¹ | – | – | – | – | – | – |
| C10U | 2.6e-05 ± 1.4e-06 s⁻¹ | 499 ± 190 µM | 1.32e-05 ± 2e-06 s⁻¹ | 2.39e-05 ± 1.5e-06 s⁻¹ | 2.41e-05 ± 1e-06 s⁻¹ | < 1e-05 s⁻¹ | – |
| G41C U56A | 0.000159 ± 4.4e-05 s⁻¹ | – | 2.18e-05 ± 1e-05 s⁻¹ | 0.000129 ± 3e-05 s⁻¹ | 0.000121 ± 1.5e-05 s⁻¹ | – | – |
| A12G A53U C67U | 0.000372 ± 8.2e-05 s⁻¹ | 6210 ± 2000 µM | – | 0.00011 ± 1.7e-05 s⁻¹ | 0.00022 ± 7.2e-05 s⁻¹ | – | – |
